{"source": "patent US20190284241A1", "about": "(Affibody, published 2019)", "key": {"[1]": {"target": "human FcRn-eGFP on transduced HeLa cells (human) (UniProt P55899)", "sequence (P55899 24-365, chain 1 of 2)": "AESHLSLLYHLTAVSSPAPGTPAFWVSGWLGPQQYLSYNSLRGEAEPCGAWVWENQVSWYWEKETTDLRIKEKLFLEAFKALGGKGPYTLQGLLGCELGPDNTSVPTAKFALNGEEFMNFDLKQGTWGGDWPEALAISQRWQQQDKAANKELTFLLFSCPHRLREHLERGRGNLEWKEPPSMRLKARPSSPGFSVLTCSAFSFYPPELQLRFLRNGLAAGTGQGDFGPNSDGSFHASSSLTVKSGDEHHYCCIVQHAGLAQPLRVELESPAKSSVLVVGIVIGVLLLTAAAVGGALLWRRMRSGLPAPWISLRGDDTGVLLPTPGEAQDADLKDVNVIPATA", "sequence (b2m, as listed by the source, chain 2 of 2)": "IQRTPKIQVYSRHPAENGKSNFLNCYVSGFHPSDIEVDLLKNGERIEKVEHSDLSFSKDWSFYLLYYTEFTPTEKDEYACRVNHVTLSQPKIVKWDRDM", "experiment": "flow cytometry, hFcRn-eGFP HeLa cells, blocks Alexa647-hIgG, pH 6.0"}, "[2]": {"target": "human FcRn-eGFP on transduced HeLa cells (human) (UniProt P55899)", "experiment": "flow cytometry, hFcRn-eGFP HeLa cells, blocks Alexa647-hIgG, pH 6.0", "remark": "listed apart in the source"}, "[3]": {"target": "T1, human FcRn (Biorbyt, cat. no. orb84388) (human, UniProt P55899 24-297; P61769 21-119, limits assumed)", "T1 construct": "Bought protein; also called hFcRn", "experiment": "ELISA screening; periplasm with the ABD moiety only captured on anti-ABD antibody, biotinylated hFcRn at 2 nM", "method": "After washing as described above, 50 μl ImmunoPure TMB substrate (Thermo Scientific, cat. no. 34021) was added to the wells and the plates were treated according to the manufacturer's recommendations.", "T1 sequence (P55899 24-297 limits assumed, chain 1 of 2)": "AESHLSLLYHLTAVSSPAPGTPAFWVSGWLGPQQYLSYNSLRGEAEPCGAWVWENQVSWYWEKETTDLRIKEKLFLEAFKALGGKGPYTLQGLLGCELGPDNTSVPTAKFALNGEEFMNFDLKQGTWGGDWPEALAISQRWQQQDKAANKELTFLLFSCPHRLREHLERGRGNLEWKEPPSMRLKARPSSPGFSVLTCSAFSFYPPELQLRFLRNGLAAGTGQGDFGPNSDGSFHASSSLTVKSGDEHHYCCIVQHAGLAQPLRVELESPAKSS", "T1 sequence (P61769 21-119 limits assumed, chain 2 of 2)": "as the sequence (b2m, as listed by the source, chain 2 of 2) above"}, "[4]": {"target": "T2, human FcRn (Biorbyt, cat. no. orb84388) (human, UniProt P55899 24-297; P61769 21-119, limits assumed)", "T2 construct": "Bought soluble protein; not biotinylated on Biacore chips and ELISA coat; also called hFcRn", "experiment": "SPR Biacore, hFcRn immobilised; sample after 2 weeks at 37 °C (2 w)", "method": "(§1) The His₆-tagged Z variants were further assessed in terms of preserved binding capacity to FcRn after introduction of alterations in the scaffold, as well as after having been subjected to the stability test, i.e. incubated at 37° C. for 2 weeks. Comparative kinetic constants (kₒₙ and koff) and affinities (KD) were determined using a Biacore 2000 instrument. The target protein human FcRn (Biorbyt, cat. no. orb 84388) was immobilized on the carboxylated dextran layer surface of a CM5 chip (GE Healthcare). The immobilization was performed using amine coupling chemistry according to the manufacturer's protocol and using HBS-EP as running buffer. One flow cell surface on the chip was activated and deactivated for use as blank during analyte injections. The immobilization level of hFcRn on the surface was approximately 750 RU. […] Regeneration by three pulses of HBS-EP followed by 10 min equilibration in running buffer was applied after each analyte injection. Kinetic constants were calculated from the sensorgrams using the Langmuir 1:1 model of the BiaEvaluation software 4.1 (GE Healthcare). Curves of the blank surface were subtracted from the curves of the ligand surfaces and the data from the buffer cycles were subtracted from the data of the test-sample cycles to correct for any drift in signal.", "T2 sequence (P55899 24-297 limits assumed, chain 1 of 2)": "as the sequence (P55899 24-297 limits assumed, chain 1 of 2) above", "T2 sequence (P61769 21-119 limits assumed, chain 2 of 2)": "as the sequence (b2m, as listed by the source, chain 2 of 2) above"}, "[5]": {"target": "T2, human FcRn (Biorbyt, cat. no. orb84388)", "experiment": "SPR Biacore, hFcRn immobilised; sample before the stability test (0)", "method": "as §1"}}, "note": "Read-outs that look alike come from different tables or passages of the source."}
{"molecule": "Subcutaneous immunoglobulin (SCIg; Gammanorm, Octapharma) (antibody)", "values": [{"measurement": "IC50", "setting": "[1]", "result": 120, "unit": "nM"}]}
{"molecule": "Intravenous immunoglobulin (IVIg; Octagam, Octapharma) (antibody)", "values": [{"measurement": "IC50", "setting": "[1]", "result": 170, "unit": "nM"}, {"measurement": "IC50", "setting": "[2]", "result": 150, "unit": "nM"}]}
{"molecule": "LAEAKVLANRELDKYGVSDYYKNLINNAKTVEGVKALIDEILAALP (other, Streptococcus strain G148, UniProt P19909 254-299, looked up, domain: GA3)", "note": "[ABD moiety only (periplasm, negative control)]", "values": [{"measurement": "binding result", "setting": "[3]", "result": "no binding (tested: 2 nM)"}]}
{"molecule": "His6-tagged Z17348 (designed binder) MGSSHHHHHHLQAEAKYAKEQDAAAHEIRWLPNLTFDQRVAFIHKLARQPEQSSELLSEAKKLSESQAPK", "values": [{"measurement": "Kd", "setting": "[4]", "result": 6.3, "unit": "nM"}, {"measurement": "koff", "setting": "[4]", "result": 0.00809, "unit": "s⁻¹"}, {"measurement": "kon", "setting": "[4]", "result": "1.28e+06", "unit": "M⁻¹ s⁻¹"}, {"measurement": "Kd", "setting": "[5]", "result": 5.5, "unit": "nM"}, {"measurement": "koff", "setting": "[5]", "result": 0.01, "unit": "s⁻¹"}, {"measurement": "kon", "setting": "[5]", "result": "1.82e+06", "unit": "M⁻¹ s⁻¹"}]}
